Among the data in PMC7954794 (2021) are screen value values, retold here.

To fix the notation:
B1: S. cerevisiae Abp1 (full length; SH3 domain 535-592 mutated) / Hua2 (parent complex)
chain 1: MALEPIDYTTHSREIDAEYLKIVRGSDPDTTWLIISPNAKKEYEPESTGSSFHDFLQLFDETKVQYGLARVSPPGSDVEKIIIIGWCPDSAPLKTRASFAANFAAVANNLFKGYHVQVTARDEDDLDENELLMKISNAAGARYSIQTSSKQQGKASTPPVKKSFTPSKSPAPVSKKEPVKTPSPAPAAKISSRVNDNNDDDDWNEPELKERDFDQAPLKPNQSSYKPIGKIDLQKVIAEEKAKEDPRLVQKPTAAGSKIDPSSDIANLKNESKLKRDSEFNSFLGTTKPPSMTESSLKNDDDKVIKGFRNEKSPAQLWAERKAKQNSGNAETKAEAPKPEVPEDEPEGEPDVKDLKSKFEGLAASEKEEEEMENKFAPPPKKSEPTIISPKPFSKPQEPVKAEEAEQPKTDYKKIGNPLPGMHIEADNEEEPEENDDDWDDDEDEAAQPPLPSRNVASGAPVQKEEPEQEEIAPSLPSRNSIPAPKQEEAPEQAPEEEIEEEAEEAAPQLPSRSSAAPPPPPRRATPEKKPKENPWATAEYDYDAAEDNELTFVENDKIINIEFVDDDWWLGELEKDGSKGLFPSNYVSLGN
chain 2: MQQTKFGKMYLDHDSVVEYSEDEIVEADRITLGYKKRLSMIENQMRHLLEDFSLDVQQIEPILADLQKYYDAFLQLLQKRNKSLQCKRSTHQPVPSPMNSQTSTNAKVNLSGKLMKFQLNSVQKFDEENILRILQNKIEFEHYFQIDKGKKQKVLLLAVYQCLNGPTRLHKVLNIEGIIHNNSIRTILGKQVSSSKWTVFLYDVKLVLLAHRQDVPNLETSKMIVRYGDLFPCALYFKDHTAY

Variants of B1 are the subject of the experiment. Description: DHFR protein-fragment complementation in yeast (Abp1-DHFR F[1,2] x partner-DHFR F[3]), deep mutational scanning, second methotrexate selection vs reference; S. cerevisiae, DHFR-PCA selection in liquid with methotrexate at 30 C, two 72 h selections (the score uses the second); reference = the pre-selection culture.
Turning to chain 1 MALEPIDYTTHSREIDAEYLKIVRGSDPDTTWLIISPNAKKEYEPESTGSSFHDFLQLFDETKVQYGLARVSPPGSDVEKIIIIGWCPDSAPLKTRASFAANFAAVANNLFKGYHVQVTARDEDDLDENELLMKISNAAGARYSIQTSSKQQGKASTPPVKKSFTPSKSPAPVSKKEPVKTPSPAPAAKISSRVNDNNDDDDWNEPELKERDFDQAPLKPNQSSYKPIGKIDLQKVIAEEKAKEDPRLVQKPTAAGSKIDPSSDIANLKNESKLKRDSEFNSFLGTTKPPSMTESSLKNDDDKVIKGFRNEKSPAQLWAERKAKQNSGNAETKAEAPKPEVPEDEPEGEPDVKDLKSKFEGLAASEKEEEEMENKFAPPPKKSEPTIISPKPFSKPQEPVKAEEAEQPKTDYKKIGNPLPGMHIEADNEEEPEENDDDWDDDEDEAAQPPLPSRNVASGAPVQKEEPEQEEIAPSLPSRNSIPAPKQEEAPEQAPEEEIEEEAEEAAPQLPSRSSAAPPPPPRRATPEKKPKENPWATAEYDYDAAEDNELTFVENDKIINIEFVDDDWWLGELEKDGSKGLFPSNVVSLGN [chain 1 Y587V], the screen value was -1.17 DMS score: mean over two replicates of log2(f_test/f_ref + 0.5)/ln 2, minus the synonymous-codon median (not a log2 ….

On to chain 1 MALEPIDYTTHSREIDAEYLKIVRGSDPDTTWLIISPNAKKEYEPESTGSSFHDFLQLFDETKVQYGLARVSPPGSDVEKIIIIGWCPDSAPLKTRASFAANFAAVANNLFKGYHVQVTARDEDDLDENELLMKISNAAGARYSIQTSSKQQGKASTPPVKKSFTPSKSPAPVSKKEPVKTPSPAPAAKISSRVNDNNDDDDWNEPELKERDFDQAPLKPNQSSYKPIGKIDLQKVIAEEKAKEDPRLVQKPTAAGSKIDPSSDIANLKNESKLKRDSEFNSFLGTTKPPSMTESSLKNDDDKVIKGFRNEKSPAQLWAERKAKQNSGNAETKAEAPKPEVPEDEPEGEPDVKDLKSKFEGLAASEKEEEEMENKFAPPPKKSEPTIISPKPFSKPQEPVKAEEAEQPKTDYKKIGNPLPGMHIEADNEEEPEENDDDWDDDEDEAAQPPLPSRNVASGAPVQKEEPEQEEIAPSLPSRNSIPAPKQEEAPEQAPEEEIEEEAEEAAPQLPSRSSAAPPPPPRRATPEKKPKENPWATAEYDYDAAEDNELTFVENDKIINIEFVDDDWWLGCLEKDGSKGLFPSNYVSLGN [chain 1 E573C], for which the screen value is 0.625 DMS score: mean over two replicates of log2(f_test/f_ref + 0.5)/ln 2, minus the synonymous-codon median (not a log2 ….

For chain 1 MALEPIDYTTHSREIDAEYLKIVRGSDPDTTWLIISPNAKKEYEPESTGSSFHDFLQLFDETKVQYGLARVSPPGSDVEKIIIIGWCPDSAPLKTRASFAANFAAVANNLFKGYHVQVTARDEDDLDENELLMKISNAAGARYSIQTSSKQQGKASTPPVKKSFTPSKSPAPVSKKEPVKTPSPAPAAKISSRVNDNNDDDDWNEPELKERDFDQAPLKPNQSSYKPIGKIDLQKVIAEEKAKEDPRLVQKPTAAGSKIDPSSDIANLKNESKLKRDSEFNSFLGTTKPPSMTESSLKNDDDKVIKGFRNEKSPAQLWAERKAKQNSGNAETKAEAPKPEVPEDEPEGEPDVKDLKSKFEGLAASEKEEEEMENKFAPPPKKSEPTIISPKPFSKPQEPVKAEEAEQPKTDYKKIGNPLPGMHIEADNEEEPEENDDDWDDDEDEAAQPPLPSRNVASGAPVQKEEPEQEEIAPSLPSRNSIPAPKQEEAPEQAPEEEIEEEAEEAAPQLPSRSSAAPPPPPRRATPEKKPKENPWATAEYDYDAAEDNELTFVENDKIINIEFVDDDWWLGSLEKDGSKGLFPSNYVSLGN [chain 1 E573S], the screen value is -0.47 DMS score: mean over two replicates of log2(f_test/f_ref + 0.5)/ln 2, minus the synonymous-codon median (not a log2 ….

With chain 1 MALEPIDYTTHSREIDAEYLKIVRGSDPDTTWLIISPNAKKEYEPESTGSSFHDFLQLFDETKVQYGLARVSPPGSDVEKIIIIGWCPDSAPLKTRASFAANFAAVANNLFKGYHVQVTARDEDDLDENELLMKISNAAGARYSIQTSSKQQGKASTPPVKKSFTPSKSPAPVSKKEPVKTPSPAPAAKISSRVNDNNDDDDWNEPELKERDFDQAPLKPNQSSYKPIGKIDLQKVIAEEKAKEDPRLVQKPTAAGSKIDPSSDIANLKNESKLKRDSEFNSFLGTTKPPSMTESSLKNDDDKVIKGFRNEKSPAQLWAERKAKQNSGNAETKAEAPKPEVPEDEPEGEPDVKDLKSKFEGLAASEKEEEEMENKFAPPPKKSEPTIISPKPFSKPQEPVKAEEAEQPKTDYKKIGNPLPGMHIEADNEEEPEENDDDWDDDEDEAAQPPLPSRNVASGAPVQKEEPEQEEIAPSLPSRNSIPAPKQEEAPEQAPEEEIEEEAEEAAPQLPSRSSAAPPPPPRRATPEKKPKENPMATAEYDYDAAEDNELTFVENDKIINIEFVDDDWWLGELEKDGSKGLFPSNYVSLGN [chain 1 W536M], the screen value is -0.26 DMS score: mean over two replicates of log2(f_test/f_ref + 0.5)/ln 2, minus the synonymous-codon median (not a log2 ….

As to chain 1 MALEPIDYTTHSREIDAEYLKIVRGSDPDTTWLIISPNAKKEYEPESTGSSFHDFLQLFDETKVQYGLARVSPPGSDVEKIIIIGWCPDSAPLKTRASFAANFAAVANNLFKGYHVQVTARDEDDLDENELLMKISNAAGARYSIQTSSKQQGKASTPPVKKSFTPSKSPAPVSKKEPVKTPSPAPAAKISSRVNDNNDDDDWNEPELKERDFDQAPLKPNQSSYKPIGKIDLQKVIAEEKAKEDPRLVQKPTAAGSKIDPSSDIANLKNESKLKRDSEFNSFLGTTKPPSMTESSLKNDDDKVIKGFRNEKSPAQLWAERKAKQNSGNAETKAEAPKPEVPEDEPEGEPDVKDLKSKFEGLAASEKEEEEMENKFAPPPKKSEPTIISPKPFSKPQEPVKAEEAEQPKTDYKKIGNPLPGMHIEADNEEEPEENDDDWDDDEDEAAQPPLPSRNVASGAPVQKEEPEQEEIAPSLPSRNSIPAPKQEEAPEQAPEEEIEEEAEEAAPQLPSRSSAAPPPPPRRATPEKKPKENPWATAEYDYDAAEDNELTFVENDKINNIEFVDDDWWLGELEKDGSKGLFPSNYVSLGN [chain 1 I560N], the screen value is -0.729 DMS score: mean over two replicates of log2(f_test/f_ref + 0.5)/ln 2, minus the synonymous-codon median (not a log2 ….
